Test results published in patent publication US20210247395A1.

Target: NP binding epitope peptide of human Influenza B, residues 31-43 of Nucleoprotein (…) (Influenza B virus (strain B/Lee/1940))
Experiment: ELISA on overlapping peptides of NP (strain B/Lee/1940)

“Acris mAb 3IF18-InB12, clone InB12 (murine anti-Influenza B nucleoprotein monoclonal antibody)” gave an OD492 nm of over 0.4 OD492 nm.
In the case of “GenWay mAb GWB-T00595, clone B265M (murine anti-Influenza B nucleoprotein monoclonal antibody)”, the OD492 nm is reported as over 0.4 OD492 nm.
